We go through two molecules from PMC9091730 (Journal of Advanced Research, 2021).

Assay [1] concerns the target L-type voltage-gated Ca2+ channel (TcL-VGCC) (Tetranychus cinnabarinus, UniProt A0A3Q9D0J7). Briefly: voltage-clamp whole-cell current recording in Xenopus oocytes. Type of assay: cell-based.
The target of assay [2] is GST-fusion peptide of the wild-type IQ motif of T. cinnabarinus L-VGCC (Tetranychus cinnabarinus). In words: pull-down.
Assay [3] deals with GST-fusion peptide of the N-terminal (NT) motif of T. cinnabarinus L-type voltage-gated Ca2+ channel (Tetranychus cinnabarinus). Briefly: pull-down.
Assay [4] concerns the target GST-fusion peptide of the wild-type IQ motif of T. cinnabarinus L-VGCC (Tetranychus cinnabarinus). In words: pull-down. This is another data set of the same source.
The target of assay [5] is GST-fusion peptide of the near-end C-terminal motif (CT1) of T. cinnabarinus L-VGCC (Tetranychus cinnabarinus). Briefly: pull-down.
The target in assay [6] is GST-fusion peptide CT1B (PreIQ and IQ) of T. cinnabarinus L-VGCC (Tetranychus cinnabarinus). Briefly: pull-down.
The target of assay [7] is GST-fusion peptide of the PreIQ motif of T. cinnabarinus L-VGCC (Tetranychus cinnabarinus). Briefly: pull-down.

Like-named read-outs stand apart in the source and are kept apart here. A value given as a limit tells only on which side of the number the result lay.

For `COc1cc2ccc(=O)oc2cc1OC` [compound 1, scoparone], in assay [1], a half-maximal response (EC50) required 5540 nM.
In the case of “Tetranychus cinnabarinus calmodulin 1 (TcCaM1), recombinant, purified (natural protein)”, the Kd (in general, a measure of binding affinity in units of concentration) in assay [2] was determined as 230 nM; in assay [3], 112 nM; in assay [4] it was 430 nM; in assay [5], 931 nM; in assay [7], 85 nM. For the same molecule, in assay [4], the percent increase of CaM1 binding in the presence of scoparone (5.54 μM) was determined as 47.1%. The Kd, two-site model, first printed value in assay [5] is 2250 nM. For the same molecule, in assay [5], the Kd, two-site model, second printed value was 24 nM. In addition, the stoichiometry N in assay [5] and in assay [6] was greater than 1 each time.
